Legend:
[1] = molecular target: T1, mouse RSPO3 (mouse, UniProt Q2TJ95 22-277, limits assumed); test: SPR (Biacore) with the Fab; table row RSPO3, Affinity (nM) Fab
T1 construct: also called mRSPO3; murine RSPO3
T1 sequence (looked up): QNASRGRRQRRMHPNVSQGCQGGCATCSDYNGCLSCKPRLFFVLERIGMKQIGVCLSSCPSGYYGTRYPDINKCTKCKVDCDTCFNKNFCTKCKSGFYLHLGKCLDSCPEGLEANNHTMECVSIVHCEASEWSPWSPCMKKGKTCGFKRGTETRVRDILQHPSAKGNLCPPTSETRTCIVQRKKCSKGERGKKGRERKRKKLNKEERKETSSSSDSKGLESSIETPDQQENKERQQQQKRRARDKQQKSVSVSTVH
Description: (§1) For kinetic measurements, two-fold serial dilutions of anti-RSPO Fabs were injected in HBS-P buffer (0.01M HEPES pH 7.4, 0.15M NaCl, 0.005% surfactant P20) at 25° C. with a flow rate of 30 μl/min. Association rates (kₒₙ) and dissociation rates (koff) were calculated using a simple one-to-one Langmuir binding model (BIAcore Evaluation Software version 3.2). The equilibrium dissociation constant (KD) was calculated as the ratio koff/kₒₙ.
(§2) Surface plasmon resonance was used to confirm binding specificities and affinities to human, mouse, and cynomolgus RSPOs. Fab fragments from antibody clones were digested, purified, and then assayed using a BIAcore™-2000 instrument for binding to recombinant proteins. Antibodies fell into three groups: those specific to RSPO2, those specific to RSPO3, and those with some degree of cross-reactivity (FIG. 5).

[2] = molecular target: T2, recombinant human RSPO3 (human, UniProt Q9BXY4 22-272); test: as above
T2 construct: also called rhRSPO3; hRSPO3
T2 sequence: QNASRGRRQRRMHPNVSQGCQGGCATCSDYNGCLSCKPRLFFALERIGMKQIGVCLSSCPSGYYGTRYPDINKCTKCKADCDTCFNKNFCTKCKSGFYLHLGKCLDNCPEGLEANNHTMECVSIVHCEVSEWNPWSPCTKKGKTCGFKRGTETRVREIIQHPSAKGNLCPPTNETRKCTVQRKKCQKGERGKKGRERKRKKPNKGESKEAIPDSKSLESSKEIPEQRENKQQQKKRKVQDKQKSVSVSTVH
Description: as §1, §2

[3] = molecular target: T3, cynomolgus RSPO3 (cynomolgus, UniProt A0A2K5UTQ7 22-273); test: as above
T3 construct: also called cynoRSPO3; rcynoRSPO3
T3 sequence: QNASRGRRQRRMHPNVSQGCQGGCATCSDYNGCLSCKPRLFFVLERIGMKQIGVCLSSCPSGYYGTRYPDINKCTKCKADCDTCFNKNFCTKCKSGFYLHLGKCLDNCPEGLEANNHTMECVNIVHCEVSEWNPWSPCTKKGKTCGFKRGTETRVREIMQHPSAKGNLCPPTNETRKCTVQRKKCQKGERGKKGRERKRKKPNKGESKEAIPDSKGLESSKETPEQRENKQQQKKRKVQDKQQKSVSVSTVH
Description: as §1, §2

[4] = molecular target: T4, mouse RSPO2 (mouse, UniProt Q8BFU0 22-205, limits assumed); test: SPR (Biacore) with the Fab; table row RSPO2, Affinity (nM) Fab
T4 construct: also called mRSPO2
Description: as §1, §2

[5] = molecular target: T5, cynomolgus RSPO2 (cynomolgus, UniProt G7PCH9 22-243); test: as above
T5 construct: also called cynoRSPO2; rcynoRSPO2
Description: as §1, §2

[6] = molecular target: T6, recombinant human RSPO2 (human, UniProt Q6UXX9 22-243); test: as above
T6 construct: Recombinant protein of the WNT reporter assays and of the Octet binning (R&D Systems; biotinylated for Octet); also called rhRSPO2; hRSPO2
Description: as §1, §2

[7] = molecular target: T7, FLAG-tagged human RSPO2 (Genentech) (human, UniProt Q6UXX9 22-243); test: competitive binding ELISA: titrated against biotinylated RNF43-Flag (RNF43-ECD) binding to plate-coated hRSPO2; signal = bound RNF43, normalized OD
T7 construct: also called hRSPO2; RSPO2 coated plates; not shown: FLAG tag

[8] = molecular target: T8, FLAG-tagged human RSPO3 (Genentech) (human, UniProt Q9BXY4 22-272); test: competitive binding ELISA: titrated against biotinylated RNF43-Flag (RNF43-ECD) binding to plate-coated hRSPO3; signal = bound RNF43, normalized OD
T8 construct: also called hRSPO3; RSPO3 coated plates; not shown: FLAG tag
T8 sequence: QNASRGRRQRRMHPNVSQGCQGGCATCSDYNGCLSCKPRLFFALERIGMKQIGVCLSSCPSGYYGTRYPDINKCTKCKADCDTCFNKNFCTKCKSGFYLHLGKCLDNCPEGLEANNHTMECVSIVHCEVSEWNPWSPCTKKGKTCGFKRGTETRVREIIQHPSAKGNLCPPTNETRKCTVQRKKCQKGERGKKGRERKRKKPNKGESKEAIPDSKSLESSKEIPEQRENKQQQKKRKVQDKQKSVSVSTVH

[9] = molecular target: T1, mouse RSPO3; test: SPR, BIAcore T200, murine RSPO3 immobilized, antibody injected
Description: (§3) The binding affinity of the antibodies in this section was determined by BIAcore™ T200 Format. Briefly, BIAcore™ research grade CMS chips were activated with 1-ethyl-3-(3-dimethylaminopropyl) carbodiimide (EDC) and N-hydroxysuccinimide (NETS) reagents according to the supplier's instructions. huRSPO3 was immobilized to achieve approximately 50 response units (RU) in each flow cell. Unreacted coupling groups were blocked with 1M ethanolamine. For kinetics measurements, Four-fold serial dilutions of variant antibody was injected in HBS-P buffer (0.01M HEPES pH7.4, 0.15M NaCl, 0.005% surfactant P20) at 25° C. with a flow rate of 30 μl/min. Association rates (kon) and dissociation rates (koff) were calculated using a 1:1 Langmuir binding model (BIAcore™ T200 Evaluation Software version 2.0). The equilibrium dissociation constant (Kd) was calculated as the ratio koff/kon.
(§4) The hu5D6v4.1 and the chimeric 5D6 were tested for their ability to bind cyno and mouse RSPO3 as described above except that cyno or murine RSPO3 replaced huRSPO3 in the binding assay. Binding properties for the humanized antibodies are shown below in Table 5.

[10] = molecular target: T3, cynomolgus RSPO3; test: SPR, BIAcore T200, cyno RSPO3 immobilized, antibody injected
Description: as §3, §4

[11] = molecular target: T2, recombinant human RSPO3; test: SPR, BIAcore T200, huRSPO3 immobilized, antibody injected
Description: as §3

T5 sequence (G7PCH9 entry or part of it): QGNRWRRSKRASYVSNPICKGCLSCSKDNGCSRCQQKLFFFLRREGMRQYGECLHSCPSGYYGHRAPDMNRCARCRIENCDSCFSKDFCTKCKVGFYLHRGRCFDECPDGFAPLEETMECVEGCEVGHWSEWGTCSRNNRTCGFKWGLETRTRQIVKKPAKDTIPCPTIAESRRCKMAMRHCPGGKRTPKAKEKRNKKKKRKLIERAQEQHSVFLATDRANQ
T6 sequence (Q6UXX9 22-243): as the sequence (G7PCH9 entry or part of it) above, with A160V, P165L, A178T counted along it
T4 sequence (Q8BFU0 22-205 limits assumed): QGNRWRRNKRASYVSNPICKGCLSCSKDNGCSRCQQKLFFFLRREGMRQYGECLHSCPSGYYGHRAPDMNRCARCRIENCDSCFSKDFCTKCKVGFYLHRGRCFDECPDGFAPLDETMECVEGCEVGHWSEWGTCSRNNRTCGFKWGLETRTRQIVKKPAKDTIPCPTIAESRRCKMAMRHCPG
T7 sequence (Q6UXX9 22-243): as the sequence (G7PCH9 entry or part of it) above, with A160V, P165L, A178T counted along it

| Binder | Kd [1] | Kd [2] | Kd [3] | binding result [4] | binding result [1] | binding result [2] | binding result [3] | Kd [4] | Kd [5] | Kd [6] | also measured |
| --- | --- | --- | --- | --- | --- | --- | --- | --- | --- | --- | --- |
| 5E11 (Fab, V domains shown, also called Fab of 5E11; 5E11 Fab) VH: QVQLKQSGPGLVQPSQSLSITCTVSGFSLSSYAVHWVRQSPGEGLEWLGVIWSGGSTDYNAAFISRMSITKDNSKSQVFFKMNSLQADDTAIYFCARNDGYYYFDYWGQGTTLTVSS VL: DIVMTQSTSSLSASLGDRVTISCRASQDISNYLNWYQQKPDGTVKLLIYYTSRLHSGVPSRFSGSGSGTDYSLTISNLEKEDVATYFCQHGDTLPPTFGGGTKLEIK | 98 nM | 10.6 nM | 39 nM | no binding |  |  |  |  |  |  | binding result [5]: no binding |
| 5C2 (Fab, V domains shown, also called Fab of 5C2; 5C2 Fab) VH: EVQLQESGPGLVAPSQSLSITCTVSGFSLTSYGVHWVRQPPGKGLEWLGVIWTGGSTNYNSALMSRLSISKDNSKSQVFLKMNSLQTDDTAMYYCARVDGYYYFDYWGQGTTLTVSS VL: DIVMTQSTSSLSASLGDRVTISCRASQDISNYLNWYQQKPDGTVKLLIYYTSRLHSGVPSRFSGSGSGTDYSLTISNLEPEDIATYFCQQGDTLPPTFGGGTKLEIK | 63 nM | 17 nM | 70 nM | no binding |  |  |  |  |  |  | binding result [5]: no binding |
| 1A1 (Fab, V domains shown, also called Fab of 1A1; 1A1 Fab) VH: EVQLVESGGGLVKPEGSLKLSCVASGFTFSDYFMSWVRQAPGQGLEWVAHIYTKTYNYATYYSGSVKGRFSISRDDSRNMVYLQMNNLRTEDTATYYCTTDEDWYFDFWGQGTQVTVSS VL: QPVLTQSPSVSASLGASVKLTCTLSSQHSTNYIEWYQQHPDKSPKFLMQVRDGSHSKGDGTPDRFSGSSSGAHRYLSISNLQLEDEAIYYCGLSDVSLYLFGSGTQLTLL |  |  |  |  | no binding | no binding | no binding | 3.6 nM | 1.4 nM | 2.9 nM |  |
| 36D2 (Fab, V domains shown, also called Fab of 36D2; 36D2 Fab) VH: QIQLQESGPGLVKPSQSLSLTCSVTGNSITSSDWSWIRQFPGKKLEWMGYMNYGGGTYYNPSLENRISITRDTSKNQFFLHLKSVTTEDTATYYCARERPHPYAYFDVWGQGIQVTVSS VL: ELVFTQPQSVSGSLGQEISISCTRSSGNIGSNYVSWYQQQSSNKPRLLIYKFDQRPSGVPDRFSGSTDSSSNSGILTISRLQPEDEGDYYCLSGYDKYVFGSGTQLTLL |  |  |  |  | no binding | no binding | no binding | 5.5 nM | 11 nM | 6.3 nM |  |
| RNF43 (receptor, kept apart from the biotinylated tracer m34; not shown: FLAG tag and any linker to it) GFGRTGLVLAAAVESERSAEQKAIIRVIPLKMDPTGKLNLTLEGVFAGVAEITPAEGKLMQSHPLYLCNASDDDNLEPGFISIVKLESPRRAPRPCLSLASKARMAGERGASAVLFDITEDRAAAEQLQQPLGLTWPVVLIWGNDAEKLMEFVYKNQKAHVRIELKEPPAWPDY |  |  |  |  |  |  |  |  |  |  | IC50 (read off the curve) [7]: ~0.2 µg/mL; IC50 (read off the curve) [8]: ~0.5 µg/mL |
| 11F11 (Fab, V domains shown, also called Fab of 11F11; 11F11 Fab) VH: QVQLQQSGPQLVKPGFSVKFSCKASGITFTEYYVTWVKQRAGQGLEWVGDIDPENGDTDYNQKFQGKATITADKSSSTAYMELSSLTSEDSAVYYCATGYDYAFDSWGQGTLVTVSS VL: QPVLTQSPSASASLGASVKLTCTLSSQHSSYGITWLQQHPDKAPKCVMYLRSDGSHSKGDGIPDRFSGSSSGAHRYLSISNVQPEDEAIYFCVTYDSTVGVFGSGTQLTVP |  |  |  | no binding | no binding | no binding | no binding |  |  | 63 nM |  |
| Fab 26E11 (Fab, V domains shown, Fab expressed in E. coli for crystallography; also called 26E11 Fab) VH: EVQLQESGPSLVKPSQTLSLTCSVTGDSITSGYWSWIRKFPGNKLEFMGYISFSGKTYYIPSLKSRVSITRDTSKNQYYLQLNSVTTEDTATYYCATYHGYGGPWFAYWGQGTLVTVSS VL: DIKMTQSPSSMYASLGERVTITCKASQDIDSYLSWFQQKPGKSPKTLIYLTNRLIDGVPSRFSGSGSGQDYSLTINSLEYEDMGIYYCLQYDEFPVTFGAGTRLEIK | 1.42 nM | 0.7 nM | 2.43 nM |  |  |  |  | 66 nM | 62 nM | 80 nM |  |
| chimeric 5D6 (antibody, V domains shown, also called 5D6 chimera) VH: EVQLQESGPSLVKPSQTLSLTCSVTGDSITSGYWNWIRKFPGNKFEYMGYISYSGKTYQNPSLKSRISITRDTSKNQYHLQLNSVTTEDTATYYCATYYGYGGPWFAYWGQGTLVTVSA VL: DIVLTQSPSSMYASLGERVTITCKASQDIDSYLSWFQQKPGKSPKTLIYLTNRLVDGVPSRFSGSGSGQDYSLTISSLEYEDMGIYYCLHYDEFPLTFGAGTKLEIK |  |  |  |  |  |  |  |  |  |  | Kd [9]: 0.0578 nM; koff [9]: 0.000237 s⁻¹; kon [9]: 4.1e+06 M⁻¹ s⁻¹; Kd [10]: 0.0453 nM; koff [10]: 0.000224 s⁻¹; kon [10]: 4.96e+06 M⁻¹ s⁻¹; Kd [11]: 0.0331 nM; koff [11]: 0.000116 s⁻¹; kon [11]: 3.51e+06 M⁻¹ s⁻¹ |
| hu5D6v4.1 (Fab, V domains shown, Humanized 5D6 variant; also called v1+T69 (LC)+(W47+I48+V67+F78 (HC))) VH: EVQLVESGPGLVKPSETLSLTCTVSGDSITSGYWNWIRQPPGKGLEWIGYISYSGKTYQNPSLKSRVTISRDTSKNQFSLKLSSVTAADTAVYYCATYYGYGGPWFAYWGQGTLVTVSS VL: DIQMTQSPSSLSASVGDRVTITCKASQDIDSYLSWFQQKPGKAPKTLIYLTNRLVDGVPSRFSGSGSGTDYTLTISSLQPEDFATYYCLHYDEFPLTFGQGTKVEIK |  |  |  |  |  |  |  |  |  |  | Kd [9]: 0.0993 nM; koff [9]: 0.000423 s⁻¹; kon [9]: 4.26e+06 M⁻¹ s⁻¹; Kd [10]: 0.0811 nM; koff [10]: 0.000434 s⁻¹; kon [10]: 5.35e+06 M⁻¹ s⁻¹; Kd [11]: 0.0635 nM; koff [11]: 0.000229 s⁻¹; kon [11]: 3.6e+06 M⁻¹ s⁻¹ |

— US20180312579A1 (Genentech, published 2018)
